# Results published in patent US20160009788A1 (UNITED STATES OF AMERICA AS REPRESENTED BY THE SECRETARY …, published 2016).
# T1: Norwalk virus (NV, GI.1) recombinant virus-like particles (capsid protein VP1) (Norwalk virus, UniProt Q83884 1-530)
# T1 sequence: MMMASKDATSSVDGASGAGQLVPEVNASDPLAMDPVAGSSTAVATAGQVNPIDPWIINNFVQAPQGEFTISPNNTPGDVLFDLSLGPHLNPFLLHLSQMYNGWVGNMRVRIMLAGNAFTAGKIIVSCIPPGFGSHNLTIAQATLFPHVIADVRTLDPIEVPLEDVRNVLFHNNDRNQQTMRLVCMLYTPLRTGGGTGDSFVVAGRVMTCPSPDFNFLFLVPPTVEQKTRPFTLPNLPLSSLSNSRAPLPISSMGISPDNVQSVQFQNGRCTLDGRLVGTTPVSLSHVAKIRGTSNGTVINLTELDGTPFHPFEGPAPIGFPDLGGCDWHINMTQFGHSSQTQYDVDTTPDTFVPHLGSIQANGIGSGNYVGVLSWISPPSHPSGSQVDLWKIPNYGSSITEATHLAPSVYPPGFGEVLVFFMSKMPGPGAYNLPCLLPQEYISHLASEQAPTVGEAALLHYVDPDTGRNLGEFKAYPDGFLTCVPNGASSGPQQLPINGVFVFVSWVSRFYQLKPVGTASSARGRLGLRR
# How the values were obtained:
# [1] = biological target: T1, Norwalk virus (NV, GI.1) recombinant …
# [2] = biological target: MD145 virus-like particle (GII.4, capsid protein VP1) (Norovirus GII.4 strain MD145-12)
# [3] = biological target: MD145 virus-like particle (GII.4, capsid protein VP1) (Norovirus GII.4 strain MD145-12); test: SPR (Biacore 1000), Fab on MD145 virus-like particle
# bovine serum albumin [4] = biological target: T2, bovine serum albumin (bovine, UniProt P02769 25-607); test: ELISA, antigen on the solid phase, soluble Fab
# T2 construct: Control antigen; also called BSA
# T2 sequence (P02769 25-607 limits assumed): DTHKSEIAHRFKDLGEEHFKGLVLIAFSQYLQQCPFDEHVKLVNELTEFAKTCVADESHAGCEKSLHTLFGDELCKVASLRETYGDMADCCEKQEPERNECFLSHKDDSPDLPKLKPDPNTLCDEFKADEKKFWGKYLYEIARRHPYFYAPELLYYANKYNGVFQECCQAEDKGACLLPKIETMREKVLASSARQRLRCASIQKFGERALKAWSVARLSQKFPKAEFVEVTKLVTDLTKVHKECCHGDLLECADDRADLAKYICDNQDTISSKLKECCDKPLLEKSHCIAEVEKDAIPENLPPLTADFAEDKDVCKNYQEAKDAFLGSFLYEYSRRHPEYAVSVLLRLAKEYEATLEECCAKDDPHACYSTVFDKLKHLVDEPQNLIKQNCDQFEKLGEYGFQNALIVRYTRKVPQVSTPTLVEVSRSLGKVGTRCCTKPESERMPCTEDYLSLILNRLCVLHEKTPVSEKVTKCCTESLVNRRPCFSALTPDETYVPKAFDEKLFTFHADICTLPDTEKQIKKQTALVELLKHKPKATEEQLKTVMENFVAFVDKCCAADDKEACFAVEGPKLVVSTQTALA
# bovine serum albumin [5] = biological target: T2, bovine serum albumin; test: ELISA, antigen coated directly on the plate
Binder,Kd [3],koff [3],kon [3],further results
"anti-NV IgG G4 (antibody, V domains shown) VH: EVQLEESGGGLVKPGGSLRLSCAASGFTFSHYVMYWVRQAPEKGLEWVSTISGSGSSTWYPDSVKGRFTVSRDNSKNTLYLQMNSLRGDDTAVYYCARLQGQLVYWGLGTLVTVS VL: ELQMTQSPSTLSASVGDRVTITCRASQGISSWLAWYQQKPGRAPKLLIYKSSTLESGVPSRFSGSGSGTEFTLTISSLQPDDFATYFCQQYSSNPPLTFGGGTKVEIKR",,,,IC50 [1]: ~2.8 nM
"anti-NoV GII.4 mAb G3 (IgG) (antibody, V domains shown) VH: EVQLEQSGGGLVKPGGSLRLSCAGSGFSFSAHTINWVRQAPGKGLEWVGFIRSQAQGGTREYAASVKGRIILSRDDSENSAYLQMNSLNTGDTAVYYCARDSSRGYYSYYLDVWGKGTTVTVSS VL: ELTQSPSSLSASVGDRVTITCRASQGISNRLNWYQQKPGKAPKLLIYDASSLESGVPSRFSGSGSGTDFTLTISSQQPEDFATYYCQQFNSYPLTFGGGTKVEIKR",,,,IC50 (read off the curve) [2]: 1 µg/mL
"anti-GII.4 NV Fab G3 (Fab, V domains shown) VH: EVQLEQSGGGLVKPGGSLRLSCAGSGFSFSAHTINWVRQAPGKGLEWVGFIRSQAQGGTREYAASVKGRIILSRDDSENSAYLQMNSLNTGDTAVYYCARDSSRGYYSYYLDVWGKGTTVTVSS VL: ELTQSPSSLSASVGDRVTITCRASQGISNRLNWYQQKPGKAPKLLIYDASSLESGVPSRFSGSGSGTDFTLTISSQQPEDFATYYCQQFNSYPLTFGGGTKVEIKR",2.61 nM,0.000421 s⁻¹,162000 M⁻¹ s⁻¹,
"anti-NV Fab E5 (Fab, V domains shown, also called ES [sic]) VH: EVQLEQSGGGLIKPGGSLRLSCAASGFTFTKYVMHWVRQAPEKGLQWVSAIGGSGGSAWYADSVKGRFTISRDNSKNTLYLQMNSLRAEDTAVYYCARDHARYSGYNSPHEVDSWGQGTLVAVS VL: ELELTQSPSSLSASVGDRVTITCRASQGISNYLAWYQQKPGKVPKLLIYAASTLQSGVPSRFSGSGSGTDFTLTISSLQPEDVATYYCQKYNSAPLTFGGGTKVEIKR",,,,binding result (bovine serum albumin [4]): no binding
"anti-GII.4 NV Fab B72 (Fab, V domains shown) VH: EVQLEQSGAEVKKPGSSVKVSCKISGGTFSRHPISWVRQAPGQGLLWMGAIILRAGTTKYEQRFQGRITITADESTGTAYMELHSLTSEDTGLYFCATDRMGTFDELLFDSWGQGTLVTVSS VL: ELQMTQSPASLSASVGDRVTITCRASQGIRNNLGWYQQKPGKPPKLLIYAASTLQSGVPSRFSGSGSGTGFTLTISSLQPEDFATYYCLQDYDFPLTFGGGTKVEIKR",0.351 nM,5.66e-05 s⁻¹,161000 M⁻¹ s⁻¹,
"anti-NV Fab B7 (Fab, V domains shown) VH: EVQLEESGGDLVQPGGSLTLSCAASGFTFSRYWMSWVRQAPGKGPEWVASIKKDGSETFYADSVKGRFIISRDIAKTSLYLQMNSLRADDTAVYYCLRAWYSSAYDFWGQGTLVTVS VL: ELELTQSPSSLSASVGDRVTITCRASQSISNYLNWYQQKPGKAPNLLIYYASTLQSGVPSRFSGSGSGTDFTLTISSLQPEDFATYYCQHGYGAIAFGQGTRLEIKR",,,,binding result (bovine serum albumin [4]): no binding
"anti-NoV GII.4 mAb D4 (IgG) (antibody, V domains shown) VH: EVQLVESGPGLVKPSETLSLTCAVSGASIRRANWWGWIRQAPGKGLEWLGSIFINAGTIYNPSLTGRVTVSADTSKNLFSLKLGSVTAADTAVYYCVKSYGDGDDNYNSFYYYMDVWGKGTSVIVSS VL: DVVMTQSPSSLSASVGDRVTITCRASQDIRNNLAWYQHKPGKAPKLLIYYASKLQSGVPLRFSGSGSGTDYTLFISSLQPEDFATYYCQQYKTDTPYSFGQGTKVDIKR",,,,IC50 (read off the curve) [2]: 1 µg/mL
"anti-GII.4 NV Fab D4 (Fab, V domains shown) VH: EVQLVESGPGLVKPSETLSLTCAVSGASIRRANWWGWIRQAPGKGLEWLGSIFINAGTIYNPSLTGRVTVSADTSKNLFSLKLGSVTAADTAVYYCVKSYGDGDDNYNSFYYYMDVWGKGTSVIVSS VL: DVVMTQSPSSLSASVGDRVTITCRASQDIRNNLAWYQHKPGKAPKLLIYYASKLQSGVPLRFSGSGSGTDYTLFISSLQPEDFATYYCQQYKTDTPYSFGQGTKVDIKR",0.121 nM,0.000178 s⁻¹,1.47e+06 M⁻¹ s⁻¹,
"anti-GII.4 NV Fab C9 (Fab, V domains shown) VH: EVQLEESGGVLVKPGGSLRLSCAASGFTFSSHAMHWVRQAPGKGLEWVAIINSGHRADYADSVKDRFTISRDNSKNTLYLQMDSLRPEDTAFYYCAREGDQQDVAD VL: ELTQSPSTLSASVGDRVTITCRASEDIMSYLAWYQQKPAKAPRLLIYYASSLQSGVPSRFSGSGSGTEFTLTISSLQPEDFATYYCQQLHTFPITFGPGTRLDIKRT",27.7 nM,0.00382 s⁻¹,138000 M⁻¹ s⁻¹,
"anti-NV Fab D8 (Fab, V domains shown) VH: EVQLEESGGGLVQPGGSLRVSCAASGFPFNGYWIHWVRQAPGKGLEWVSRVNSDGRITNFADSVMGRFTMSRDNAKSTVYLQMNSLRAEDTAMYYCSRGGYTGYPEGHWGQGTLVTVS VL: ELQMTQSPSSLSAAVGDSVTITCRASQGISIHLAWYQQKPGKVPNLLIYAASTLQSGVPSRFSGSGSGTDFTLTINSLQPEVFATYYCQKYDSAPFTFGPGTKVDIKR",,,,binding result (bovine serum albumin [5]): no binding
"anti-NV Fab F11 (Fab, V domains shown) VH: EVQLVETGGSLVQPGGSLRLSCAASGFSVSIYHMSWVRQAPGKGLEWVSLLYSGGSTYYADSVKGRFTISRDNSKNTLYLQMNSLRAEDTAVYYCARDYSGSWVGDEARSYYYYYYMDVWGKGTTVTVS VL: ELQVTQSPSSLSASVGDRVTITCQASQDISYYLNWYQQRPGKVPKLLIYSASYLHSGVPSRFSGSGSGTDFTLTISSLQPEDVATYYCQRTYNAPYTFGQGTKVEIKR",,,,binding result (bovine serum albumin [4]): no binding
